Our source for the stoichiometry N values is doi:10.1101/2021.07.06.451098.

Assay [1] concerns the target VAR2CSA ectodomain (residue 1-2630) of Plasmodium falciparum 3D7 (Plasmodium falciparum 3D7). The experiment in a line: SEC. Background: Size exclusion chromatography separates by hydrodynamic size, large species first.
For assay [2] the target is unchanged. In words: cross-linking.

As usually defined, the stoichiometry N is the number of molecules, sites or subunits per partner or assembly. For the substance “VAR2CSA ectodomain (residue 1-2630) of Plasmodium falciparum 3D7 (domain or fragment)”, the stoichiometry N in assay [1] and in assay [2] was 2 each time.
